Results taken from the supplement of paper PMC9732359.
± gives the uncertainty stated by the source.

Test: protein stability index of a GFP-peptide fusion (yeast GPS) (PSI 1-4); higher = more stable; sorted into four equal gates, so the index is relative within each strain
Method in brief: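 Mid-log yeast cultures in leucine-free medium, carrying a pooled plasmid library, were sorted into four equal gates by their GFP/Cherry fluorescence ratio. Each plasmid expressed Cherry along with GFP fused upstream of a tiled 17-residue yeast protein peptide. Plasmids recovered from each gate were PCR-amplified and Illumina-sequenced, with reads assigned to strains by barcodes. The protein stability index was obtained by summing each gate's read frequency weighted by its gate number.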

Sequence	protein stability index (doa10∆)	protein stability index (pdr5∆)	protein stability index (san1∆)	protein stability index (ubr1∆)
LKDLNLTVSIKIALMNI [RGR1]	1.34 ± 0.062	1.66 ± 0.066	1.73 ± 0.077	1.21 ± 0.06
FMRNGLLEGLNEKIEKR [UBP6]	2.99 ± 0.29	2.87 ± 0.18	3.21 ± 0.26	3.55 ± 0.23
PEELARILQQLKLDKII [RGR1]	2.51 ± 0.059	1.49 ± 0.05	3.15 ± 0.076	2.72 ± 0.063
SNMFDNSADVDMDAQGR [YGL100W/SEH1]	3.42 ± 0.085	3.55 ± 0.076	3.5 ± 0.057	3.29 ± 0.062
IFINYKQTADWLAEKFQ [PRP28]	1.7 ± 0.049	1.93 ± 0.06	2.37 ± 0.072	2.36 ± 0.06
LSNLSKDIKANLSSNVN [YCS4]	2.85 ± 0.05	3.03 ± 0.068	3.04 ± 0.06	2.93 ± 0.046
FLVRYACEPTAEKFVPI [SIR3]	2.55 ± 0.23	2.9 ± 0.097	2.75 ± 0.11	2.91 ± 0.1
NDFFDNGDNLYGNDEEV [RPN4]	1.21 ± 0.2	1.62 ± 0.29		1.05 ± 0.067
QDVAAKCKEVGITAVHV [RPS14B]	2.44 ± 0.059	2.7 ± 0.068	2.8 ± 0.065	2.18 ± 0.037
LSLTAFTKNEEKLLKEL [ITC1]	2.24 ± 0.081	2.29 ± 0.072	2.29 ± 0.08	2.44 ± 0.26
LGNIASSFYINHASMDV [BRR2]	2.84 ± 0.12	2.67 ± 0.12	2.88 ± 0.1	3.27 ± 0.15
SVLSSKPGSKPEKTSTE [SIR3]	3.17 ± 0.12	2.7 ± 0.19	3.15 ± 0.078	3.2 ± 0.12
KNSSVSSLMNGLGYVFE [SRB5]	3.06 ± 0.14	1.72 ± 0.073	2.4 ± 0.1	2.51 ± 0.056
QGGFYKQQDAEELFTQL [UBP6]	3.38 ± 0.078	3.44 ± 0.12	3.07 ± 0.097	3.21 ± 0.075
NQSTIYEDEELSRAEYD [LIN1]	3.12 ± 0.086	3.2 ± 0.087	3.15 ± 0.058	3.27 ± 0.058
SEIARTYLLKNDLVKAR [RPN9]	3.29 ± 0.2		3.09 ± 0.12	
SAIVNEDGLLEGLDELP [SOH1]	2.95 ± 0.14	3.24 ± 0.082	2.78 ± 0.15	2.8 ± 0.12
VASQSPHATATEKEPVP [SNF6]	3.23 ± 0.11	3.06 ± 0.061	2.88 ± 0.15	3.35 ± 0.077
IEYCSAQPSVQSSFAGT [FAS2]	2.72 ± 0.11	3.07 ± 0.094	2.77 ± 0.073	2.56 ± 0.059
SVQDLGGSATARHKKKV [YML031W/NDC1]	2.7 ± 0.12	1.75 ± 0.069	1.57 ± 0.21	2.05 ± 0.057
LNDVVSFLFSAIPLQQV [SWI1]	1.83 ± 0.044	2.08 ± 0.039	1.94 ± 0.057	1.75 ± 0.026
LRKSELEYYAMLSKTKV [RPL30]	2.62 ± 0.075	3.01 ± 0.078	2.17 ± 0.07	2.82 ± 0.068
AARKAANKEKRAIILER [RPL7A]	1.19 ± 0.051	1.37 ± 0.058	1.14 ± 0.078	1.27 ± 0.14
PGPLPDTDSKPSSQSQN [YLR018C/POM34]	3.06 ± 0.079	3.15 ± 0.061	3.17 ± 0.063	2.98 ± 0.061
IVMQLRKCCNHPYLFEG [ISW2]	2.78 ± 0.087	2.53 ± 0.11	2.74 ± 0.069	2.78 ± 0.11
VRTNRFDIIEESFKGLQ [ECM29]	2.6 ± 0.099	2.47 ± 0.13	2.18 ± 0.12	2.26 ± 0.1

Sequence	protein stability index (doa10∆)	protein stability index (pdr5∆)	protein stability index (san1∆)	protein stability index (ubr1∆)
GRNLGRIGTIVHKERHD [RPS4A]	2.42 ± 0.13	2.03 ± 0.098	2.5 ± 0.059	2.63 ± 0.061
EQQWITRAQYLAFAKLV [SRP68]	1.63 ± 0.06	1.51 ± 0.051	1.33 ± 0.086	1.5 ± 0.051
FDVVLTTFEYIIKERAL [SNF2]	2.12 ± 0.067	2.36 ± 0.071	2.05 ± 0.088	2.14 ± 0.071
EQSLEVFIFPTSNWEIY [SRB8]	2.47 ± 0.067	2.2 ± 0.048	2.57 ± 0.044	2.52 ± 0.033
YLAKLSKQLSLEEKKKR [IRR1]	2.65 ± 0.098	2.75 ± 0.085	2.44 ± 0.11	2.86 ± 0.085
IDAMKAVAEAYNNRSLL [RPN6]	1.7 ± 0.061	2.07 ± 0.068	2.28 ± 0.095	1.79 ± 0.067
TPLKARQREMAEEQTKL [YLR018C/POM34]	3.33 ± 0.08	3.36 ± 0.093	3.31 ± 0.053	3.41 ± 0.056
GAAFKVISNLVPKLESS [YJL039C/NUP192]	2.86 ± 0.16	2.59 ± 0.11	2.58 ± 0.24	2.18 ± 0.12
DTPEGEACGLVKNLALM [RET1]	2.14 ± 0.098	2.01 ± 0.13	3.21 ± 0.1	1.71 ± 0.28
LIIQKIPSLQNNIEENL [ECM29]	2.91 ± 0.067	2.88 ± 0.066	2.66 ± 0.065	2.98 ± 0.071
PFSFSSATSTTEQTKSK [YLR335W/NUP2]	2.99 ± 0.06	2.99 ± 0.058	2.85 ± 0.075	2.86 ± 0.054
RIQNRVKLGLNSKMPTR [PRP8]	2.48 ± 0.16	2.92 ± 0.1	2.74 ± 0.13	2.91 ± 0.13
EKTINDLQRTQTLSEKE [YIL149C/MLP2]	2.97 ± 0.071	3.03 ± 0.06	2.94 ± 0.044	2.94 ± 0.042
KTDTKVSFRTHNSHLSL [SRP21]	3.03 ± 0.059	3.06 ± 0.053	2.92 ± 0.053	3.15 ± 0.048
EIYTVEDRPPEYWAQRK [ISW2]	3.44 ± 0.23	3.14 ± 0.14		3.31 ± 0.13
IMNMIENVEKKEAALKT [SMC2]	1.76 ± 0.082	1.83 ± 0.079	1.67 ± 0.092	1.69 ± 0.05
YWSDKKADTDTLLYEQI [SNF5]	2.55 ± 0.079	2.61 ± 0.069	2.64 ± 0.083	2.3 ± 0.049
LDDQIFVCEKSIEFAKR [RPN6]				1.27 ± 0.16
VDRSKYNIELPLPPRID [RPT1]	3.33 ± 0.2	3.58 ± 0.26	3.15 ± 0.094	3.14 ± 0.17
SNNTGNTAFGNSNPTSN [YJL041W/NSP1]	3.01 ± 0.15	3.19 ± 0.13	2.66 ± 0.15	
KVVNFWLLHNGFSTGIG [RPO21]	3.17 ± 0.16	2.25 ± 0.1	2.51 ± 0.13	1.37 ± 0.094
AVVGNNMLLDPAANESE [RRP42]	1.47 ± 0.083	1.81 ± 0.073	2.48 ± 0.093	2.12 ± 0.048
LFSSRRLQAKRLKDVEW [RMP1]	2.62 ± 0.084	2.79 ± 0.059	3.1 ± 0.079	1.68 ± 0.065
GSGNNNEIESRQLTSLG [SNU114]	3.4 ± 0.16	3.32 ± 0.16		3.19 ± 0.19
VELLDSNDRVNPLIELT [ITC1]	3.58 ± 0.11	2.5 ± 0.11	3.28 ± 0.075	3.02 ± 0.069
